Experimental data as given in patent US20170233490A1 (Hoffmann-La Roche, published 2017).
Where “and” joins values, the source holds several entries; their conditions need not be identical. Equal values may be shown once.

Experiments:
[1] = target: T1, human HER3 Extracellular Domain (ECD) (human, UniProt P21860 20-643); assay: SPR Biacore 3000, 37 C
T1 construct: human recombinant, 68 kDa; 'closed' conformation without ligand; also called Her3 ECD; Her-3 ECD

[2] = target: T2, HER3 ECD-HRG complex (human, UniProt P21860 20-643); assay: SPR Biacore 3000, 37 C
T2 construct: HER3 ECD preincubated with a 3- to 6-fold molar excess of Heregulin ('open' conformation); biotinylated Her3-ECD in the ribosome display; also called HER3-ECD/HRG1β

[3] = target: T3, HER4 ECD-HRG complex (human, UniProt Q15303 26-651); assay: SPR Biacore 3000, 37 C
T3 construct: HER4 ECD preincubated with a 5-fold molar excess of Heregulin
T3 sequence 1: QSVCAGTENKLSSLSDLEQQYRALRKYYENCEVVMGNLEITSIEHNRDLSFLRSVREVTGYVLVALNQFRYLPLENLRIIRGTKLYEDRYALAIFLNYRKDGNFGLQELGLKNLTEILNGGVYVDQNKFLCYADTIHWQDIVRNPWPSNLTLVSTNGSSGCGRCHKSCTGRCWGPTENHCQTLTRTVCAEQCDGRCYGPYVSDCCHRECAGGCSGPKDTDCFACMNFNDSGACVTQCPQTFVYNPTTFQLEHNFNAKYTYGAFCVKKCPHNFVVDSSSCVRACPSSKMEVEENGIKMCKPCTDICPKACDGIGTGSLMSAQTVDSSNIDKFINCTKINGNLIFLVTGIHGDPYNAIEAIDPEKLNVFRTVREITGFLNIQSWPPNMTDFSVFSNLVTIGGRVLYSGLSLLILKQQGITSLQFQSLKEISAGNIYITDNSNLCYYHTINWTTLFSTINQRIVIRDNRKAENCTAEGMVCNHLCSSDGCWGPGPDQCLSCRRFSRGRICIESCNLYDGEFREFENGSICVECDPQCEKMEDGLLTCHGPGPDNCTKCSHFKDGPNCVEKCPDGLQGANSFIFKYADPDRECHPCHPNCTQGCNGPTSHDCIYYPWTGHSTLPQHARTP
T3 sequence 2: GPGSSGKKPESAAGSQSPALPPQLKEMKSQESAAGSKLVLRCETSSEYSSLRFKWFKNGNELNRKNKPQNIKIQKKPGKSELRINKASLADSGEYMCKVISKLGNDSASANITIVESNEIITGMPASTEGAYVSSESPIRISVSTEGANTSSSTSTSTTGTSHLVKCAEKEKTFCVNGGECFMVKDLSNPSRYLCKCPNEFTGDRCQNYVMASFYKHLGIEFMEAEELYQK

[4] = target: T1, human HER3 Extracellular Domain (ECD); assay: SPR Biacore T100, antibody captured, 25 C
Experimental: (§1) A CM5 series sensor was mounted into the system and was normalized in HBS-ET buffer (10 mM HEPES pH 7.4, 150 mM NaCl, 3 mM EDTA, 0.005% w/v Tween 20) according to the manufacturer's instructions. The sample buffer was the system buffer supplemented with 1 mg/ml CMD (Carboxymethyldextran, Sigma #86524). The system operated at 25° C. 6500 RU RAM-Fcγ (relative units of Fcγ-fragment RamIgG, GE Healthcare) were immobilized according to the manufacturer's instructions using EDC/NHS chemistry on all four flow cells. The sensor was deactivated using 1M ethanolamine.
(§2) The binding activity of the respective antibody against the analytes was kinetically tested. Antibodies were captured at 35 nM concentration by a 1 min injection at 5 μl/min. The flow rate was set to 100 μl/min.
(§3) Analytes in solution were injected at different concentration steps of 0 nM, 1.1 nM, 3.7 nM, 11.1 nM, 33.1 nM and 90 nM for 3.5 min. The dissociation was monitored for 15 min. Where possible, kinetic signatures were evaluated according to a Langmuir fit.

[5] = target: T4, human HER4 Extracellular Domain (ECD) (human, UniProt Q15303 26-651); assay: SPR Biacore T100, antibody captured, 25 C
T4 construct: also called Her4 ECD; HER4-ECD
T4 sequence: T3 sequence 1
Experimental: as §1, §2, §3

[6] = target: T5, human HER2 Extracellular Domain (ECD) (human, UniProt P04626 23-652); assay: SPR Biacore T100, antibody captured, 25 C
T5 construct: human recombinant, 69.6 kDa; also called Her2 ECD; HER2_ECD
Experimental: as §1, §2, §3

[7] = target: T6, human Heregulin fragment (HRG) (human); assay: SPR Biacore T100, antibody captured, 25 C
T6 construct: 44 kDa homodimeric protein, expressed in FreeStyle 293-F cells; also called Heregulin beta; HRG1β
T6 chain: T3 sequence 2
Experimental: as §1, §2, §3

[8] = target: T2, HER3 ECD-HRG complex; assay: SPR Biacore T100, antibody captured, 25 C
Experimental: as §1, §2, §3

[9] = target: T3, HER4 ECD-HRG complex; assay: SPR Biacore T100, antibody captured, 25 C
Experimental: as §1, §2, §3

B1: anti-HER3/HER4 antibody M-05-74 (antibody, V domains shown)
VH: QVQLQQSGAELAKPGASVKMSCKTSGYTLTDYWIHWVKQRPGQGLEWIGYINPYTGYTESNQKFKDKATLTADKSSNTAYIQLSSLTSEDSAVYYCARPYYYGDYWGQGTTLTVSS
VL: QIVLTQSPAIMSASPGERVTITCSASSSVSYMHWFQQKPGTSPKLLIYSTSNLASGVPARFSGSGSGTSYSLTISRMEAEDAATYYCQQRSSYPFTFGSGTKLEIK
notes: murine monoclonal IgG from hybridoma (supernatant or purified), bivalent; also called M-074; M-5-74
B1 was tested, and the Kd [1] was 4 nM, the MR [1] was 0.6 and the koff [1] was 8.1e-05 s⁻¹. It also gave a kon [1] of 21000 M⁻¹ s⁻¹, a t/2diss [1] of 144 min and a Kd [2] of 7 nM. The MR [2] was 0.7, the koff [2] was 0.00057 s⁻¹ and the kon [2] was 79000 M⁻¹ s⁻¹. It also gave a t/2diss [2] of 20 min, a Kd [3] of 6 nM and an MR [3] of 0.9. It also gave a koff [3] of 0.0033 s⁻¹, a kon [3] of 580000 M⁻¹ s⁻¹ and a t/2diss [3] of 4 min. The “BL (Binding Late)” value [4] was 70 RU, the Kd [4] was 2.2 nM and 2 nM and the “MR (Molar Ratio)” value [4] was 0.2. The koff [4] was 2.8e-05 s⁻¹, the kon [4] was 13000 M⁻¹ s⁻¹ and the “BL (Binding Late)” value [5] was 27 RU. The Kd [5] was 150 nM, the “MR (Molar Ratio)” value [5] was 0.1 and the binding result [6] was “no binding (tested: up to 90 nM)”. For the same binder, the binding result [7] was “no binding (tested: up to 90 nM)”, the “BL (Binding Late)” value [8] was 160 RU and the Kd [8] was 4.2 nM and 4 nM. For the same binder, the “MR (Molar Ratio)” value [8] was 0.6, the koff [8] was 0.00027 s⁻¹ and the kon [8] was 63000 M⁻¹ s⁻¹. The “BL (Binding Late)” value [9] was 349 RU, the Kd [9] was 5.2 nM and 5 nM and the “MR (Molar Ratio)” value [9] was 0.6. The koff [9] was 0.00083 s⁻¹ and the kon [9] was 160000 M⁻¹ s⁻¹.
